# Assay results taken from the supplement of paper PMC5998384.
# Assays:
# HeLa Kyoto [1] = assay: solubility in G1/S (NP-40 vs SDS abundance) (log2 ratio); higher = more soluble; conditions: cell cycle stage: G1/S
# HeLa Kyoto [2] = assay: melting temperature (median over replicates), in situ; higher = more thermally stable
# HeLa Kyoto [3] = assay: solubility change mitosis vs G1/S (difference of NP-40 vs SDS log2 ratios) (log2 ratio difference); higher = more soluble in mitosis
# HeLa Kyoto [4] = assay: thermal stability score vs G1/S (z-score of summed log2 fold changes over temperatures); higher = more thermally stable than in G1/S
# [5] = cell cycle stage: early G1 (4.5 h after nocodazole release)
# 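Wherever melting temperature (median over replicates), in situ is given: HeLa Kyoto cells synchronized by double thymidine or nocodazole block, proteins quantified by TMT10plex mass spectrometry, three independent biological replicates.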
# 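Wherever solubility change mitosis vs G1/S (difference of NP-40 vs SDS log2 ratios) is given: synchronized HeLa Kyoto cells (double thymidine block for G1/S, nocodazole release for mitosis), protein amounts in NP-40 versus SDS lysates quantified by mass spectrometry, three biological replicates.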
# 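Wherever solubility in G1/S (NP-40 vs SDS abundance) is given: HeLa Kyoto cells arrested at G1/S by double thymidine block, proteins quantified by TMT10plex mass spectrometry in mild NP-40 versus SDS extracts, three biological replicates.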
# 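Wherever thermal stability score vs G1/S (z-score of summed log2 fold changes over temperatures) is given: synchronized HeLa Kyoto cells, proteins quantified by TMT10plex mass spectrometry, three biological replicates, mitosis taken 0.5 h after nocodazole release, G1/S directly after double thymidine block.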
Substance,solubility in G1/S (log2) (HeLa Kyoto [1]),melting temperature (HeLa Kyoto [2]; cell cycle stage: G1/S) [°C],melting temperature (HeLa Kyoto [2]; cell cycle stage: mitosis) [°C],solubility change mitosis (log2) (HeLa Kyoto [3]),thermal stability score (HeLa Kyoto [4]; [5]),thermal stability score (HeLa Kyoto [4]; cell cycle stage: mitosis)
MESRKLISATDIQYSGSLLNSLNEQRGHGLFCDVTVIVEDRKFRAHKNILSASSTYFHQLFSVAGQVVELSFIRAEIFAEILNYIYSSKIVRVRSDLLDELIKSGQLLGVKFIAELGVPLSQVKSISGTAQDGNTEPLPPDSGDKNLVIQKSKDEAQDNGATIMPIITESFSLSAEDYEMKKIIVTDSDDDDDDVIFCSEILPTKETLPSNNTVAQVQSNPGPVAISDVAPSASNNSPPLTNITPTQKLPTPVNQATLSQTQGSEKLLVSSAPTHLTPNIILLNQTPLSTPPNVSSSLPNHMPSSINLLVQNQQTPNSAILTGNKANEEEEEEIIDDDDDTISSSPDSAVSNTSLVPQADTSQNTSFDGSLIQKMQIPTLLQEPLSNSLKISDIITRNTNDPGVGSKHLMEGQKIITLDTATEIEGLSTGCKVYANIGEDTYDIVIPVKDDPDEGEARLENEIPKTSGSEMANKRMKVKHDDHYELIVDGRVYYICIVCKRSYVCLTSLRRHFNIHSWEKKYPCRYCEKVFPLAEYRTKHEIHHTGERRYQCLACGKSFINYQFMSSHIKSVHSQDPSGDSKLYRLHPCRSLQIRQYAYLSDRSSTIPAMKDDGIGYKVDTGKEPPVGTTTSTQNKPMTWEDIFIQQENDSIFKQNVTDGSTEFEFIIPESY [ZBTB33],-0.035,46.4,51.6,-0.162,1.76,3.1
MGRRALLLLLLSFLAPWATIALRPALRALGSLHLPTNPTSLPAVAKNYSVLYFQQKVDHFGFNTVKTFNQRYLVADKYWKKNGGSILFYTGNEGDIIWFCNNTGFMWDVAEELKAMLVFAEHRYYGESLPFGDNSFKDSRHLNFLTSEQALADFAELIKHLKRTIPGAENQPVIAIGGSYGGMLAAWFRMKYPHMVVGALAASAPIWQFEDLVPCGVFMKIVTTDFRKSGPHCSESIHRSWDAINRLSNTGSGLQWLTGALHLCSPLTSQDIQHLKDWISETWVNLAMVDYPYASNFLQPLPAWPIKVVCQYLKNPNVSDSLLLQNIFQALNVYYNYSGQVKCLNISETATSSLGTLGWSYQACTEVVMPFCTNGVDDMFEPHSWNLKELSDDCFQQWGVRPRPSWITTMYGGKNISSHTNIVFSNGELDPWSGGGVTKDITDTLVAVTISEGAHHLDLRTKNALDPMSVLLARSLEVRHMKNWIRDFYDSAGKQH [PRCP],0.0413,58.5,54.1,-0.246,-0.942,-2.23
MAVLLLLLRALRRGPGPGPRPLWGPGPAWSPGFPARPGRGRPYMASRPPGDLAEAGGRALQSLQLRLLTPTFEGINGLLLKQHLVQNPVRLWQLLGGTFYFNTSRLKQKNKEKDKSKGKAPEEDEEERRRRERDDQMYRERLRTLLVIAVVMSLLNALSTSGGSISWNDFVHEMLAKGEVQRVQVVPESDVVEVYLHPGAVVFGRPRLALMYRMQVANIDKFEEKLRAAEDELNIEAKDRIPVSYKRTGFFGNALYSVGMTAVGLAILWYVFRLAGMTGREGGFSAFNQLKMARFTIVDGKMGKGVSFKDVAGMHEAKLEVREFVDYLKSPERFLQLGAKVPKGALLLGPPGCGKTLLAKAVATEAQVPFLAMAGPEFVEVIGGLGAARVRSLFKEARARAPCIVYIDEIDAVGKKRSTTMSGFSNTEEEQTLNQLLVEMDGMGTTDHVIVLASTNRADILDGALMRPGRLDRHVFIDLPTLQERREIFEQHLKSLKLTQSSTFYSQRLAELTPGFSGADIANICNEAALHAAREGHTSVHTLNFEYAVERVLAGTAKKSKILSKEEQKVVAFHESGHALVGWMLEHTEAVMKVSITPRTNAALGFAQMLPRDQHLFTKEQLFERMCMALGGRASEALSFNEVTSGAQDDLRKVTRIAYSMVKQFGMAPGIGPISFPEAQEGLMGIGRRPFSQGLQQMMDHEARLLVAKAYRHTEKVLQDNLDKLQALANALLEKEVINYEDIEALIGPPPHGPKKMIAPQRWIDAQREKQDLGEEETEETQQPPLGGEEPTWPK [SPG7],0.0611,51.2,51.9,-0.102,2.94,1.55
MAEPDPSHPLETQAGKVQEAQDSDSDSEGGAAGGEADMDFLRNLFSQTLSLGSQKERLLDELTLEGVARYMQSERCRRVICLVGAGISTSAGIPDFRSPSTGLYDNLEKYHLPYPEAIFEISYFKKHPEPFFALAKELYPGQFKPTICHYFMRLLKDKGLLLRCYTQNIDTLERIAGLEQEDLVEAHGTFYTSHCVSASCRHEYPLSWMKEKIFSEVTPKCEDCQSLVKPDIVFFGESLPARFFSCMQSDFLKVDLLLVMGTSLQVQPFASLISKAPLSTPRLLINKEKAGQSDPFLGMIMGLGGGMDFDSKKAYRDVAWLGECDQGCLALAELLGWKKELEDLVRREHASIDAQSGAGVPNPSTSASPKKSPPPAKDEARTTEREKPQ [SIRT2],0.229,51.4,52.5,-0.026,0.148,-0.178
MGAFLDKPKTEKHNAHGAGNGLRYGLSSMQGWRVEMEDAHTAVVGIPHGLEDWSFFAVYDGHAGSRVANYCSTHLLEHITTNEDFRAAGKSGSALELSVENVKNGIRTGFLKIDEYMRNFSDLRNGMDRSGSTAVGVMISPKHIYFINCGDSRAVLYRNGQVCFSTQDHKPCNPREKERIQNAGGSVMIQRVNGSLAVSRALGDYDYKCVDGKGPTEQLVSPEPEVYEILRAEEDEFIILACDGIWDVMSNEELCEYVKSRLEVSDDLENVCNWVVDTCLHKGSRDNMSIVLVCFSNAPKVSDEAVKKDSELDKHLESRVEEIMEKSGEEGMPDLAHVMRILSAENIPNLPPGGGLAGKRNVIEAVYSRLNPHRESDGASDEAEESGSQGKLVEALRQMRINHRGNYRQLLEEMLTSYRLAKVEGEESPAEPAATATSSNSDAGNPVTMQESHTESESGLAELDSSNEDAGTKMSGEKI [PPM1B],-0.164,52.9,52.6,0.0659,0.54,-0.803
ZCCHC11,-0.0583,50.6,49.4,-0.11,0.72,1.31
